Values quoted from earlier work, collected in article PMC5830169.
pKd: −log10 of the molar value.

Molecular target: rhodopsin (UniProt P02699)
Sequence of UniProt P02699 (P02699 whole entry): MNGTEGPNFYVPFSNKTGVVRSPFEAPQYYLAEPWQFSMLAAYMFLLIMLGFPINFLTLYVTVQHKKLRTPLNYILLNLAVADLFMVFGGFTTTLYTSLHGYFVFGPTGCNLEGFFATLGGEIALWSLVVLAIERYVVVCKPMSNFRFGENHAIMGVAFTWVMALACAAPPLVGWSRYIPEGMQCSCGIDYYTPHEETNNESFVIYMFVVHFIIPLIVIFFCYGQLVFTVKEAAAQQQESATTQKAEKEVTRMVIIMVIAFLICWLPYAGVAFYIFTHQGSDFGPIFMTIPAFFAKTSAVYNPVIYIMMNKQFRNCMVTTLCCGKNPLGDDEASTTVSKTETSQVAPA

For visual arrestin (from UniProt P10523), the pKd is listed as 7.30.
